Results published in US20210380660A1 (OREGON HEALTH AND SCIENCE UNIVERSITY, published 2021).
Where a chain is given by its changes, count along the chain named. Names may count otherwise.

B1: DRhQ (other)
chain: MEVGWYRPPFSRVVHLYRNGKGGGGSLVPRGSGGGGIKEEHVIIQAEFYQNPDQSGEFMFDFDGDEIFHVDMAKKETVWRLEEFGRFASFEAQGALANIAVDKANLEIMTKRSNYTPITN
notes: Made in E. coli; also called DRα1-hMOG-35-55 with glutamine substitution; L50Q
B2: DRmQ (other)
chain: B1 chain with P8S
notes: also called DRα1-mMOG-35-55 with glutamine substitution
B3: DRα1-mMOG-35-55 (other)
chain: B1 chain with P8S, Q50L
notes: also called DRα1 with mouse MOG-35-55 peptide
B4: DRα1-hMOG-35-55 (other)
chain: B1 chain with Q50L
notes: also called DRα1-human(h)MOG-35-55; DRα1 with human MOG-35-55 peptide

Legend:
[1] = target: T1, recombinant human CD74 (C27S) (human, UniProt P04233 1-216); assay: direct binding ELISA on rhCD74 (legend of FIG. 6A)
T1 chain: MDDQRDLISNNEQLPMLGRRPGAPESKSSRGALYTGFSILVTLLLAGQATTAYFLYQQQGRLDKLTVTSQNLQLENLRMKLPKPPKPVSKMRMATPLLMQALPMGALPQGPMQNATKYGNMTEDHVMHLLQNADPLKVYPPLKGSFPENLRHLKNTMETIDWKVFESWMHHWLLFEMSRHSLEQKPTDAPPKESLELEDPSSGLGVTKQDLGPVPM

[2] = target: T1, recombinant human CD74 (C27S); assay: direct binding ELISA, rhCD74 (C27S) coated, construct detected with anti-MOG antibody, one-site fit
[3] = target: T1, recombinant human CD74 (C27S); assay: competition ELISA against MIF for rhCD74
[4] = target: T1, recombinant human CD74 (C27S); assay: competition ELISA: MIF coated, rhCD74 with serially diluted construct, bound rhCD74 detected
mouse CD74 = target: T2, mouse CD74 (mouse, UniProt P04441-2 1-215, limits assumed); assay: competition with FITC-labelled P2 peptide on immunoprecipitated mouse CD74, gel densitometry, one-site fit
T2 construct: Native protein pulled down from splenocyte lysate; also called mCD74; immunoprecipitated mouse CD74
T2 sequence (looked up): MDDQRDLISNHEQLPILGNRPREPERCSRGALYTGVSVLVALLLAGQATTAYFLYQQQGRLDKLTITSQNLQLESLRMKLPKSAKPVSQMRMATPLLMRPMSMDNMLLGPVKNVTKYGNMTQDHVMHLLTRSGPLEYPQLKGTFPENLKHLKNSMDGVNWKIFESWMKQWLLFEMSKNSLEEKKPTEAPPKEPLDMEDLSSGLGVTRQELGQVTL
Description: For competition experiments, ELISA plates were coated with MIF at room temperature at a concentration of 0.5 μg/ml in TBS. Plates were then blocked overnight with 5% BSA in TBS and 0.0125% T20 followed by the addition of a competitive mix containing rhCD74 with serially diluted DRα1 constructs prepared in 5% BSA/TBS plus 0.0125% T20 for 1.5 hours at 25° C. Bound rhCD74 was detected with a monoclonal antibody that specifically recognizes human CD74 in a region away from the putative MIF/D-DT binding site. Absorbance at 450 nm was determined and data were analyzed with Prism, the parameters were calculated with the competition equation included in the software. For competition between DRα1-hMOG-35-55 and P2 peptide (see next section), mouse CD74 was immunoprecipitated from DR*1501 Tg mouse splenocytes and a competition experiment was set. 2.5 μl of P2 peptide were used with increasing concentrations of DRα1-hMOG-35-55 protein. Bound peptide was eluted from the immunoprecipitation with 2% SDS and analyzed in a 16.5% PAG Tris/Tricine. The gel was scanned for FITC and fluorescence was quantified by densitometry. P2 fluorescence vs. DRα1 competitor was plotted and data analyzed with Prism. The relative density values were fit to a One-binding site equation. […]

Binder	Kd [1] [nM]	Kd [2] [nM]	IC50 [3] [nM]	IC50 [4] [nM]	Kd (mouse CD74) [nM]
B1	89	91.1	280	298	
B2				828	
B3				937	
B4	650	702	1600	1640	750
